# Patent publication US20170183380A1 (published 2017)
# Where no end group is shown, it is not given here.
# Legend:
# [1] = biological target: HER2 on TUBO cells (mice cell line), HER2-overexpressing (UniProt P06494 23-1257); assay: cell-based or functional assay
# [2] = biological target: HER2 on HER2-overexpressing breast cancer cells (SK-Br-3: human cell line) (human, UniProt P04626 23-1255); assay: cell-based or functional assay
# Sequence of HER2 on TUBO cells (mice cell line), HER2-overexpressing (P06494 23-1257): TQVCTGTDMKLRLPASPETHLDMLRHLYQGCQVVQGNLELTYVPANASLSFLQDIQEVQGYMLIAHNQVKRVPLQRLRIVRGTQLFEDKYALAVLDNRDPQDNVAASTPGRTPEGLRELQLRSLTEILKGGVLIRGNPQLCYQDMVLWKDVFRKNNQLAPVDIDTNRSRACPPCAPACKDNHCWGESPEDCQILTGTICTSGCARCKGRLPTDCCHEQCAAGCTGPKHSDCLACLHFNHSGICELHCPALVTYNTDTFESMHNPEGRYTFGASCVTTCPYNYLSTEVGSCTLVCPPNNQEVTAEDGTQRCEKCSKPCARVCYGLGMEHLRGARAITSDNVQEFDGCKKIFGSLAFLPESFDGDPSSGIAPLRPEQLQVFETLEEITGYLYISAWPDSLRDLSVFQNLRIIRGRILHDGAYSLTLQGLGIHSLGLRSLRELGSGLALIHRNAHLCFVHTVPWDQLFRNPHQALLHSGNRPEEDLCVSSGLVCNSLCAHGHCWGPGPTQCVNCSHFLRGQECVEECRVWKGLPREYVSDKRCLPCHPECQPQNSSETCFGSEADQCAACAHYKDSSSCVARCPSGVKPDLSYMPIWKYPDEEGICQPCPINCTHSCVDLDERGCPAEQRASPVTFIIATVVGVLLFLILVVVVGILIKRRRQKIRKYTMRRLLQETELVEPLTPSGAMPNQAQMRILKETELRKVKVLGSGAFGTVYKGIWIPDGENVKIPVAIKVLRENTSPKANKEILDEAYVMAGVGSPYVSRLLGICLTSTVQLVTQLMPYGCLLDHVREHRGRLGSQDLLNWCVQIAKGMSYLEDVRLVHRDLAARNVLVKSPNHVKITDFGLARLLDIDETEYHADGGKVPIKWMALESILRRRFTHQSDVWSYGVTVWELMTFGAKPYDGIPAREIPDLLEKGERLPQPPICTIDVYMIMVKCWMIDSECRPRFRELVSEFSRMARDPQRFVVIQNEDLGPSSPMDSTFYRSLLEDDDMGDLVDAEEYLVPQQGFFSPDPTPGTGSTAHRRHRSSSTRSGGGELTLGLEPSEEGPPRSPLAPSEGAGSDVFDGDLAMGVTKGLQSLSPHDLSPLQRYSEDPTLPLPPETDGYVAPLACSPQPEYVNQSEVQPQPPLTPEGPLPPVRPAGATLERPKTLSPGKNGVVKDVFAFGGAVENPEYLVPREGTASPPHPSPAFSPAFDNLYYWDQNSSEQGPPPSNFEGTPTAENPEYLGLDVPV
Binder,"IC50 (cytotoxicity, MTT assay), TUBO cells, 3 hours [1] [µM]","IC50 (cytotoxicity, MTT assay), TUBO cells, 6 hours [1] [µM]","IC50 (cytotoxicity, MTT assay), SKBR3 cells, 3 hours [2] [µM]","IC50 (cytotoxicity, MTT assay), SKBR3 cells, 6 hours [2] [µM]"
"C(Maleimide‑PEG2000‑DSPE)GGGLTVSPWY (not fully specified; also: order of spacer and peptide assumed) [LTVSPWY (SEQ ID NO: 1) peptide-liposome, post inserted liposome 25 Ligand]",11.1,5.5,24.9,12.8
"C(Maleimide‑PEG2000‑DSPE)GGGLTVSPWY (not fully specified; also: order of spacer and peptide assumed) [LTVSPWY (SEQ ID NO: 1) peptide-liposome, post inserted liposome 50 Ligand]",9.7,4.6,21.5,10.4
"C(Maleimide‑PEG2000‑DSPE)GGGLTVSPWY (not fully specified; also: order of spacer and peptide assumed) [LTVSPWY (SEQ ID NO: 1) peptide-liposome, post inserted liposome 200 Ligand]",6.5,2.5,15.2,4.9
"C(Maleimide‑PEG2000‑DSPE)GGGLTVSPWY (not fully specified; also: order of spacer and peptide assumed) [LTVSPWY (SEQ ID NO: 1) peptide-liposome, post inserted liposome 100 Ligand]",8.08,3.9,17.9,6.07
